Laboratory results as given in patent US20110045604A1 (UNIVERSITY OF CHICAGO, published 2011).

Target: T1, Erbin PDZ (UniProt Q96RT1 1321-1410, limits assumed)
T1 construct: domain: PDZ; Isolated PDZ domain without FN3; Expressed in E. coli from a pHFT2 derivative; also called wild-type PDZ domain; parent PDZ
Assay: SPR (BIAcore 2000); PDZ immobilised on Ni-NTA chip, SUMO-peptide fusion as analyte
Procedure: Affinity Measurements. SPR measurements were performed in 20 mM HEPES/NaOH buffer (pH 7.4), 150 mM NaCl, and 0.005% Tween 20 at 25° C. on a BIAcore 2000 instrument. The affinity clamp or the linker mutant was immobilized on a Ni-NTA chip to the level of approximate 300 RU, and different concentrations of SUMO-peptide fusion protein were injected. The kinetic data were analyzed using the one-to-one binding model in BIAEvaluation (BIAcore).

T1 sequence (Q96RT1 1321-1410 limits assumed): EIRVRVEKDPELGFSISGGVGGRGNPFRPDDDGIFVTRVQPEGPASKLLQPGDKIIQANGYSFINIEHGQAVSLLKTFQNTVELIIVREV

B1: SUMO-ARVCF peptide fusion protein (peptide)
chain: PQPVDSWV
notes: Analyte in SPR; also called wild-type ARVCF peptide; AVFCF peptide; not shown: yeast SUMO, fusion partner N-terminal to the peptide
- Kd: 2.2 µM

B2: SUMO-δ-catenin peptide fusion protein (peptide)
peptide: {yeast SUMO}-PASPDSWV-OH
modifications: not fully specified
notes: The methods say that SUMO-peptide fusion proteins were injected in SPR; also called C-terminus of δ-catenin; not shown: The yeast SUMO fusion partner N-terminal to the peptide, and any junction or tag residues
- Kd: 6.3 µM
